Results reported in US20190270815A1 (WUXI BIOLOGICS IRELAND, published 2019).

Key:
[1] = target: T1, human PD-1 expressed on cells (human, UniProt Q15116 25-288); test: FACS on CHO-S cells expressing human PD-1
T1 construct: whole, on cells; also called PD-1 expressing CHO cell; PD-1 transfected CHO-S cells
Procedure: 3.1 Binding affinity of PD-1 antibodies to cell surface PD-1 molecules tested by flow cytometry (FACS): Antibody binding affinity to cell surface PD-1 was performed by FACS analysis. CHO-S cells expressing human PD-1 were transferred in to 96-well U-bottom plates (BD) at a density of 5×10⁵ cells/ml. Tested antibodies were 1:2 serially diluted in wash buffer (1×PBS/1% BSA) and incubated with cells at 4° C. for 1 h. The secondary antibody goat anti-human IgG Fc FITC (3.0 moles FITC per mole IgG, (Jackson Immunoresearch Lab) was added and incubated at 4° C. in the dark for 1 h. The cells were then washed once and resuspended in 1×PBS/1% BSA, and analyzed by flow cytometery (BD). Fluorescence intensity will be converted to bound molecules/cell based on the quantitative beads Quantum™ MESF Kits, Bangs Laboratories, Inc.). KD was calculated using Graphpad Prism5.

[2] = target: T2, murine PD-1 (Sino biological) (murine, UniProt Q02242 25-167, limits assumed); test: ELISA on plate-coated murine PD-1
T2 sequence (looked up): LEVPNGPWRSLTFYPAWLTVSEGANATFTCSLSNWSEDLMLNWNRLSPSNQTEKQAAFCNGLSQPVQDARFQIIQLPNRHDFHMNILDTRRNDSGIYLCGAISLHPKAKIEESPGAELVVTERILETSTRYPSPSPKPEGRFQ
Procedure: 3.3.1 Cross-reactivity to cynomolgus PD-1 and murine PD-1: Cross-reactivity was measured by ELISA. Plates (Nunc) were coated with cynomolgus PD-1 (Sino Biological) and murine PD-1 (Sino biological) at 1 μg/ml overnight at 4° C. After blocking and washing, […] antibodies were added to the plates and incubated at room temperature for 1 h. The plates were then washed and subsequently incubated with secondary antibody goat anti rat IgG1 HRP (Bethyl) and goat anti rat IgG2b HRP (Bethyl) for 45 min. After washing, TMB substrate was added and the interaction was stopped by 2M HCl. The absorbance at 450 nm was read using a microplate reader (Molecular Device).

[3] = target: T3, hPD-1 ECD-His point mutant V 144 (to alanine) (human, UniProt Q15116 25-170); test: ELISA, antibody coated, His-tagged PD-1 mutant supernatant; fold change vs silent alanine substitutions
T3 construct: extracellular domain
T3 sequence (Q15116 other isoform, or with tags, fused parts or gaps mutant): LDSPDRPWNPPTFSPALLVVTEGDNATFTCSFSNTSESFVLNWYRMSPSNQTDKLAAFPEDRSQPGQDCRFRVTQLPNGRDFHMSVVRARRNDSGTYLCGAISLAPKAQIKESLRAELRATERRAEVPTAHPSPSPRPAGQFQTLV
Procedure: (§1) After interacting with the supernatant that contains quantified PD-1 mutant, HRP conjugated anti-His antibody (Rockland, Cat#200-303-382) was added as detection antibody. Absorbance was normalized according to the average of control mutants. After setting an additional cutoff to t4he binding fold change (<0.55), the final determined epitope residues were identified.

[4] = target: T4, hPD-1 ECD-His point mutant D 85 (to alanine) (human, UniProt Q15116 25-170); test: as above
T4 construct: extracellular domain
T4 sequence (Q15116 other isoform, or with tags, fused parts or gaps mutant): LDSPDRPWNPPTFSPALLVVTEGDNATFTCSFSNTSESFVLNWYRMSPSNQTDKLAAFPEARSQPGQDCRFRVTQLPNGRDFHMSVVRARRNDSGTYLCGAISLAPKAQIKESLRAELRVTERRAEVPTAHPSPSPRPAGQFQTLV
Procedure: as §1

[5] = target: T5, hPD-1 ECD-His point mutant M 108 (to alanine) (human, UniProt Q15116 25-170); test: as above
T5 construct: extracellular domain
T5 sequence (Q15116 other isoform, or with tags, fused parts or gaps mutant): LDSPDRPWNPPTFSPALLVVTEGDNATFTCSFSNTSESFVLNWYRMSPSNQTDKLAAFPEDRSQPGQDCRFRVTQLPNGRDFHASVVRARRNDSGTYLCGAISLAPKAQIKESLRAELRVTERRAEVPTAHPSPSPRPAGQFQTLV
Procedure: as §1

[6] = target: T6, hPD-1 ECD-His point mutant I 134 (to alanine) (human, UniProt Q15116 25-170); test: as above
T6 construct: extracellular domain
T6 sequence (Q15116 other isoform, or with tags, fused parts or gaps mutant): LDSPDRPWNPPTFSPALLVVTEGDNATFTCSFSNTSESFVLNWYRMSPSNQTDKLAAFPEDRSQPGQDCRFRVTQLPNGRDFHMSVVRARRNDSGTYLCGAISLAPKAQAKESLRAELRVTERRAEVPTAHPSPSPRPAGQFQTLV
Procedure: as §1

[7] = target: T7, hPD-1 ECD-His point mutant W 67 (to alanine) (human, UniProt Q15116 25-170); test: as above
T7 construct: extracellular domain
T7 sequence (Q15116 other isoform, or with tags, fused parts or gaps mutant): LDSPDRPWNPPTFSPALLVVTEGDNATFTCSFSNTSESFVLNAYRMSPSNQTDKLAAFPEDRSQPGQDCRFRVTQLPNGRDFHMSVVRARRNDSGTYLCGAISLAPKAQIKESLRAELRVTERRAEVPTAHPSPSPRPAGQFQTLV
Procedure: as §1

[8] = target: T8, hPD-1 ECD-His point mutant Q 133 (to alanine) (human, UniProt Q15116 25-170); test: as above
T8 construct: extracellular domain
T8 sequence (Q15116 other isoform, or with tags, fused parts or gaps mutant): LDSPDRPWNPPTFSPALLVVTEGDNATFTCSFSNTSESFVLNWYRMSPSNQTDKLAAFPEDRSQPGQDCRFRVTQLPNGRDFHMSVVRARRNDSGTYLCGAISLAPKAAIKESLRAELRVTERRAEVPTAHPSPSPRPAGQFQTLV
Procedure: as §1

[9] = target: T9, hPD-1 ECD-His point mutant D 117 (to alanine) (human, UniProt Q15116 25-170); test: as above
T9 construct: extracellular domain
T9 sequence (Q15116 other isoform, or with tags, fused parts or gaps mutant): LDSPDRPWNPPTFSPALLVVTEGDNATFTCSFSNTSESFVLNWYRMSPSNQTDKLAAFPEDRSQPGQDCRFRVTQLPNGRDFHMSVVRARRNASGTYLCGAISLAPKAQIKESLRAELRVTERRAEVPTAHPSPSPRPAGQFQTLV
Procedure: as §1

[10] = target: T10, hPD-1 ECD-His point mutant F 106 (to alanine) (human, UniProt Q15116 25-170); test: as above
T10 construct: extracellular domain
T10 sequence (Q15116 other isoform, or with tags, fused parts or gaps mutant): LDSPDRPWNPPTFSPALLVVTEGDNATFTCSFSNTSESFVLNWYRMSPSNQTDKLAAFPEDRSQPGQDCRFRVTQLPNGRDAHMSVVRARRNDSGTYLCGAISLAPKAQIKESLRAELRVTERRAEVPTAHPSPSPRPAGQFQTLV
Procedure: as §1

[11] = target: T11, hPD-1 ECD-His point mutant A 50 (to glycine) (human, UniProt Q15116 25-170); test: as above
T11 construct: extracellular domain
T11 sequence (Q15116 other isoform, or with tags, fused parts or gaps mutant): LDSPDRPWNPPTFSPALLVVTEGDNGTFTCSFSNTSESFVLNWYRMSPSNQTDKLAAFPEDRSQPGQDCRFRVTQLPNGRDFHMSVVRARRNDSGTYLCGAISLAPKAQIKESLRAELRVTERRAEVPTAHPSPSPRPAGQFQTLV
Procedure: as §1

[12] = target: T12, hPD-1 ECD-His point mutant F 82 (to alanine) (human, UniProt Q15116 25-170); test: as above
T12 construct: extracellular domain
T12 sequence (Q15116 other isoform, or with tags, fused parts or gaps mutant): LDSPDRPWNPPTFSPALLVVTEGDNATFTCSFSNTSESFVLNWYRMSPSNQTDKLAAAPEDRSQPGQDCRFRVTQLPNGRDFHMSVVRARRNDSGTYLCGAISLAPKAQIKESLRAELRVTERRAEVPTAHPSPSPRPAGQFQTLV
Procedure: as §1

[13] = target: T13, hPD-1 ECD-His point mutant P 83 (to alanine) (human, UniProt Q15116 25-170); test: as above
T13 construct: extracellular domain
T13 sequence (Q15116 other isoform, or with tags, fused parts or gaps mutant): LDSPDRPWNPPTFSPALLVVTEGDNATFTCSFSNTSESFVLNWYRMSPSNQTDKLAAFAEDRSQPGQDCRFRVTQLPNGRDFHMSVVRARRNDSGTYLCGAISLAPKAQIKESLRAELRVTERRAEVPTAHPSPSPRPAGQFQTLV
Procedure: as §1

[14] = target: T14, hPD-1 ECD-His point mutant L 128 (to alanine) (human, UniProt Q15116 25-170); test: as above
T14 construct: extracellular domain
T14 sequence (Q15116 other isoform, or with tags, fused parts or gaps mutant): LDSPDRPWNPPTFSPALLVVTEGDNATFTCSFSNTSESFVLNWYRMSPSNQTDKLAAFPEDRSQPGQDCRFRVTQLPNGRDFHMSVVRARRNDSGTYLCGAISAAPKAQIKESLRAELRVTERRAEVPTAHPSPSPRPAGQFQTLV
Procedure: as §1

[15] = target: T15, hPD-1 ECD-His point mutant K 131 (to alanine) (human, UniProt Q15116 25-170); test: as above
T15 construct: extracellular domain
T15 sequence (Q15116 other isoform, or with tags, fused parts or gaps mutant): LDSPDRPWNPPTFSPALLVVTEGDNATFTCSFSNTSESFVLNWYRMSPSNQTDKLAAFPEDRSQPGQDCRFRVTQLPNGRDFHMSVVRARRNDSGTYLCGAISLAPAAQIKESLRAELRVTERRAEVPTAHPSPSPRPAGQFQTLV
Procedure: as §1

[16] = target: T16, hPD-1 ECD-His point mutant P 39 (to alanine) (human, UniProt Q15116 25-170); test: as above
T16 construct: extracellular domain
T16 sequence (Q15116 other isoform, or with tags, fused parts or gaps mutant): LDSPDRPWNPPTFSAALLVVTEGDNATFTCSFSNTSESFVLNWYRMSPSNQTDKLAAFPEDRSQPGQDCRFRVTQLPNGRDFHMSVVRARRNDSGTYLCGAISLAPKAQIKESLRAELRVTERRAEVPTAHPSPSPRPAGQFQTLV
Procedure: as §1

[17] = target: T17, hPD-1 ECD-His point mutant S 137 (to alanine) (human, UniProt Q15116 25-170); test: as above
T17 construct: extracellular domain
T17 sequence (Q15116 other isoform, or with tags, fused parts or gaps mutant): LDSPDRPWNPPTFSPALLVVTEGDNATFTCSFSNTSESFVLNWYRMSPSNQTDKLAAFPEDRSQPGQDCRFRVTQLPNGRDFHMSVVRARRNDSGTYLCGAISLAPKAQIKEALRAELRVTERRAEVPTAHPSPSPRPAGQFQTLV
Procedure: as §1

[18] = target: T18, hPD-1 ECD-His point mutant A 113 (to glycine) (human, UniProt Q15116 25-170); test: as above
T18 construct: extracellular domain
T18 sequence (Q15116 other isoform, or with tags, fused parts or gaps mutant): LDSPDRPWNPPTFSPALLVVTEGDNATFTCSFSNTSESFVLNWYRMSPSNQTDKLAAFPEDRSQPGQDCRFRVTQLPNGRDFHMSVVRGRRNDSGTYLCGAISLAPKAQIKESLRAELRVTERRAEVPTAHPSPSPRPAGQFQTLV
Procedure: as §1

T1 sequence (Q15116 25-288): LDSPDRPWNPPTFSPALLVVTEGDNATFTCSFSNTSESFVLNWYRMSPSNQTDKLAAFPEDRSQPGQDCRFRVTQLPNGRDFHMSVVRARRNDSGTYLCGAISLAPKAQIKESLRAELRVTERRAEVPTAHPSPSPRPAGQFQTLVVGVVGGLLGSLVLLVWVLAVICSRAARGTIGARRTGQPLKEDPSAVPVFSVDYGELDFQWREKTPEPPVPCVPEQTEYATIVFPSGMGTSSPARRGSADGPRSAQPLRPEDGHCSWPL

EC50 [1]: ~2 nM
fold change [3]: 0.22
fold change [4]: 0.24
fold change [5]: 0.56
fold change [6]: 0.69
fold change [7]: 0.76
fold change [8]: 0.37
fold change [9]: 0.73
fold change [10]: 0.41
fold change [11]: 0.73
fold change [12]: 0.65
fold change [13]: 0.3
fold change [14]: 0.32
fold change [15]: 0.43
fold change [16]: 0.55
fold change [17]: 0.62
fold change [18]: 0.73
B1: 1.103.11 hAb (antibody, V domains shown)
VH: QLQLQESGPGLVKPSETLTLTCTVSADSISSTTYYWVWIRQPPGKGLEWIGSISYSGSTYYNPSLKSRVTVSVDTSKNQFSLKLNSVAATDTALYYCARHLGYNGRYLPFDYWGQGTLVTVSS
VL: QSALTQPASVSGSPGQSITISCTGTSSDVGFYNYVSWYQQHPGKAPELMIYDVSNRPSGVSDRFSGSKSGNTASLTISGLQAEDEADYYCSSYTNISTWVFGGGTKLTVL
notes: fully human monoclonal antibody with a human constant region of IgG4 isotype
binding result [2]: no binding (tested: 1 g/ml antibodies (so in the source))
